From paper PMC314469, “Protein Interaction Networks by Proteome Peptide Scanning” (PLoS Biology, 2004) come the findings set out here.

T1: amphyphisin SH3 (AMPH_HUMAN), P49418
T1 chain: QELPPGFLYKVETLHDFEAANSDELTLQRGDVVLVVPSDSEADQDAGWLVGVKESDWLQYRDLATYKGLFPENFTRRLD

B1: P50749 58-71 (peptide)
chain: ISWGLRRPIRLQMQ
B2: Q9ULL8 1100-1114 (peptide)
chain: KAFPPPRPPPPNWE
B3: P98161 2462-2476 (peptide)
chain: IRLSPNRPPLGGSS
B4: Q9H2U9 455-468 (peptide)
chain: KAGSISRPAKDESD
B5: O00155 224-237 (peptide)
chain: ISRRLRRPPHVGRA
B6: P42702 4-17 (peptide)
chain: IYVSLKRPSWMVDN
B7: Q9P283 1-15 (peptide)
chain: AAPFPDRPPAHLVS
B8: Q9UFC0 257-271 (peptide)
chain: KANSPEKPPEAGAA
B9: Q9Y4Z6 67-80 (peptide)
chain: KAISFLRPTKENVD
B10: O95444 196-209 (peptide)
chain: IRFKLKRPLEDGGR
B11: Q8WZ42 18722-18736 (peptide)
chain: KASRPIKPPGPPIN
B12: Q9UFP7 465-479 (peptide)
chain: ITVSPNKPPAVSPG
B13: BAC03837 101-115 (peptide)
chain: ALTSPGRPPMGFTT
B14: P78347 180-193 (peptide)
chain: ISFIIKRPFLEPKK
B15: P24821 757-770 (peptide)
chain: ITKSLRRPETSYRQ
B16: Q14699 89-102 (peptide)
chain: IYSTLKRPQVETKI
B17: Q9P2M4 294-308 (peptide)
chain: KAGRPSKPPSPKQN
B18: Q01118 1027-1040 (peptide)
chain: ISMKFLRPLRVLSQ
B19: Q9Y4F1 101-114 (peptide)
chain: IVKQIRRPKHVVVK
B20: Q01826 463-477 (peptide)
chain: ISTPPSRPPQVKTA
B21: AAM34265 504-518 (peptide)
chain: IRLPPARPPTPGRS
B22: Q9Y5I0 277-290 (peptide)
chain: IVYSFRRPVWPAVV
B23: Q9H669 126-139 (peptide)
chain: ISHRLRRPGAPPST
B24: AAH32349 3-17 (peptide)
chain: KAVLPLRPPWPLWG
B25: Q9NX58 81-94 (peptide)
chain: ISELIKRPNVSPKV
B26: Q9UJU8 278-291 (peptide)
chain: IYTELSRPSKRRMQ
B27: Q96T13 405-418 (peptide)
chain: ISFHPKRPVHILLH
B28: Q9C000 395-408 (peptide)
chain: IRQILSRPERLLFI
B29: P80365 68-81 (peptide)
chain: ALSRLARPQRLPVA
B30: Q9HBK4 869-882 (peptide)
chain: ISSVPRRPARALHP
B31: O14514 1249-1262 (peptide)
chain: ITGTLKRPSLPEEE
B32: P48165 231-244 (peptide)
chain: IRSALKRPVEQPLG
B33: P07202 539-552 (peptide)
chain: IRGLLARPAKLQVQ
B34: Q9H5F9 434-447 (peptide)
chain: ITLTPVRPDRTPRP
B35: Q96SZ9 375-388 (peptide)
chain: ISFHPKRPMHILLH
B36: O75643 1042-1055 (peptide)
chain: ISSQIERPIRIVAL
B37: Q9C0I2 1104-1117 (peptide)
chain: KAPPPTRPKRNDST
B38: Q9H6Z2 106-119 (peptide)
chain: ALTLPRRPFLHSST

In one experiment the target is T1, amphyphisin SH3 (AMPH_HUMAN), P49418. The experiment is described as follows: SPOT array.
With B1, the normalised SPOT signal, Boehringer light units (BLU); mean over the file's lines of this peptide was 929.
Same read-out and setting: to B2 belongs 146.
Still for that read-out and setting: to B3 belongs 186.
The same measure, in the same setting: to B4 belongs 164; to B5, 56.5; to B6, 56.9.
The molecule B7 had a normalised SPOT signal, Boehringer light units (BLU); mean over the file's lines of this peptide of 48.1.
With B8, the normalised SPOT signal, Boehringer light units (BLU); mean over the file's lines of this peptide came out at 40.8.
The same measure, in the same setting: to B9 belongs 56.2; to B10, 38.3; to B11, 48.3.
Still for that read-out and setting: as for B12, the figure is 41.6.
Still for that read-out and setting: as for B13, the figure is 51.2.
In turn, B14 registered a normalised SPOT signal, Boehringer light units (BLU); mean over the file's lines of this peptide of 42.4.
Same read-out and setting: as for B15, the figure is 39.1.
Still for that read-out and setting: to B16 belongs 19.8; to B17, 28.
Molecule B18 displayed a normalised SPOT signal, Boehringer light units (BLU); mean over the file's lines of this peptide of 13100.
The same measure, in the same setting: to B19 belongs 13.
In the case of B20, the normalised SPOT signal, Boehringer light units (BLU); mean over the file's lines of this peptide came to 216.
The same measure, in the same setting: as for B21, the figure is 4960; as for B22, 27.4; as for B23, 9.8.
In turn, B24 returned a normalised SPOT signal, Boehringer light units (BLU); mean over the file's lines of this peptide of 100.
B25 registered a normalised SPOT signal, Boehringer light units (BLU); mean over the file's lines of this peptide of 30.6.
The same measure, in the same setting: as for B26, the figure is 85.
In the case of B27, the normalised SPOT signal, Boehringer light units (BLU); mean over the file's lines of this peptide was determined as 27.3.
Still for that read-out and setting: to B28 belongs 973.
The molecule B29 displayed a normalised SPOT signal, Boehringer light units (BLU); mean over the file's lines of this peptide of 1350.
Regarding B30, the normalised SPOT signal, Boehringer light units (BLU); mean over the file's lines of this peptide was 12900.
Still for that read-out and setting: as for B31, the figure is 36.3.
On the same count and under the same terms, as for B32, the figure is 26.3; as for B33, 97.3.
On the same count and under the same terms, as for B34, the figure is 6730; as for B35, 56.1.
In turn, B36 had a normalised SPOT signal, Boehringer light units (BLU); mean over the file's lines of this peptide of 535.
On the same count and under the same terms, to B37 belongs 8570; to B38, 1530.

The target of a further experiment is endophilin SH3 (SH3G2_HUMAN), Q99962. The experiment is described as follows: SPOT array.
B1: the normalised SPOT signal, Boehringer light units (BLU); mean over the file's lines of this peptide is 730.
B2 came in with a normalised SPOT signal, Boehringer light units (BLU); mean over the file's lines of this peptide of 13600.
Still for that read-out and setting: as for B3, the figure is 1100; as for B4, 127; as for B5, 5.9.
Same read-out and setting: to B6 belongs 46.4.
The same measure, in the same setting: to B7 belongs 90.4; to B8, 47.6; to B9, 68.6.
Take B10: the normalised SPOT signal, Boehringer light units (BLU); mean over the file's lines of this peptide is 39.9.
On to B11, for which the normalised SPOT signal, Boehringer light units (BLU); mean over the file's lines of this peptide was 2120.
In the case of B12, the normalised SPOT signal, Boehringer light units (BLU); mean over the file's lines of this peptide was 59.3.
The same measure, in the same setting: to B13 belongs 260.
On the same count and under the same terms, as for B14, the figure is 130; as for B15, 46.8; as for B16, 114.
On the same count and under the same terms, to B17 belongs 3150; to B18, 925.
Take B19: the normalised SPOT signal, Boehringer light units (BLU); mean over the file's lines of this peptide was 43.3.
Still for that read-out and setting: to B20 belongs 1960; to B21, 19900; to B22, 147.
On the same count and under the same terms, to B23 belongs 120.
Same read-out and setting: to B24 belongs 11600.
B25 showed a normalised SPOT signal, Boehringer light units (BLU); mean over the file's lines of this peptide of 14.7.
Same read-out and setting: to B26 belongs 60.3; to B27, 173.
For B28, the normalised SPOT signal, Boehringer light units (BLU); mean over the file's lines of this peptide was found to be 398.
Still for that read-out and setting: as for B29, the figure is 492; as for B30, 5010.
Regarding B31, the normalised SPOT signal, Boehringer light units (BLU); mean over the file's lines of this peptide turned out to be 18.8.
On the same count and under the same terms, to B32 belongs 0; to B33, 54.1.
The same measure, in the same setting: as for B34, the figure is 6160; as for B35, 524.
The same measure, in the same setting: as for B36, the figure is 173; as for B37, 3140.
B38 came in with a normalised SPOT signal, Boehringer light units (BLU); mean over the file's lines of this peptide of 7630.
